For experiment [1], the target named is T1, CS1 FC融合标签蛋白 (CS1 Fc fusion tag protein, expressed in 293F cells) (UniProt Q9NQ25).
T1 sequence (looked up): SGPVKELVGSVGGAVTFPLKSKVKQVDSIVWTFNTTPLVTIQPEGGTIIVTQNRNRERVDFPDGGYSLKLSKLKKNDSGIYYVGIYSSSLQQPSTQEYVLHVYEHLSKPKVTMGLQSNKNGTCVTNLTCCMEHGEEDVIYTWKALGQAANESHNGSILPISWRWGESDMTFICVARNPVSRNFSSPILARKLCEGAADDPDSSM
Description: ELISA, CS1 protein coated at 1 ug/ml, purified antibody at dilution 25K. (In general: An ELISA detects its analyte on a solid surface through an enzyme-linked reagent.)

In experiment [2] the target is T1, CS1 FC融合标签蛋白 (CS1 Fc fusion tag protein, expressed in 293F cells). As to the kind of experiment: ELISA, CS1 protein coated at 1 ug/ml, purified antibody at dilution 125K.
The target is the same in experiment [3]. Description: ELISA, CS1 protein coated at 1 ug/ml, purified antibody at dilution 625K.
Experiment [4] has the same target. Description: ELISA, CS1 protein coated at 1 ug/ml, purified antibody at dilution 3125k.
Experiment [5] shares this target. As to the kind of experiment: ELISA, CS1 protein coated at 1 ug/ml, purified antibody at dilution 15625k.
For experiment [6] the target is unchanged. As to the kind of experiment: indirect ELISA, CS1 protein coated at 1 ug/ml, B cell culture supernatant, goat anti-rabbit IgG-HRP.
For experiment [7] the target is unchanged. As to the kind of experiment: ELISA, CS1 protein coated at 1 ug/ml, purified antibody at dilution 5K.
Experiment [8] has the same target. As to the kind of experiment: ELISA, CS1 protein coated at 1 ug/ml, purified antibody at dilution 1K.

B1: 命名为1D12的兔重组单克隆抗体 (rabbit recombinant monoclonal antibody 1D12) (antibody, V domains shown)
VH: QSVEESGGRLVTPGTPLTLTCTVSGFSLSSYGMIWVRQAPGKGLEWIGSINTDGSTYYATWAKGRFTISRTSTTVDLKITSPTTEDTATYFCARGYPGYITDSYYYFNIWGPGTLVTVS
VL: DVVLTQTPASVEAAVRGTVTIKCQASQSISSYLSWYQQKPGQPPKLLIYRASTLESGVPSRFKGSGSGTEFTLTITDLECADAATYYCQCTYGTFHSSGYGFGGGTGVVVK
Regarding B1, the ELISA OD came out at 3.45 in experiment [1]; 2.02 in experiment [2]; 0.522 in experiment [3]; 0.209 in experiment [4]; 0.124 in experiment [5]. Moreover, the OD450值 in experiment [6] was found to be 2.13 OD450.

B2: 命名为2B3的兔重组单克隆抗体 (rabbit recombinant monoclonal antibody 2B3) (antibody, V domains shown)
VH: QSVEESGGRLVTPGTPLTLTCTVSGFSLSAYAMGWFRQAPGKGLEYIGIISDSASTFYATWAKGRFTISRTSSTMVDLKMTSPTTEDTATYFCARAYYVVDNDSPFNMWGPGTVVTVS
VL: VMTQTPSSVSAAVGGTVTINCQASENIYSSLAWYQQKPGQPPKLLIYAASKLESGVPSRFKGSRSETDFTLTISDLECDDAATYYCQSYYDTGRASFAFGGGTEVVVK
As to B2, the ELISA OD in experiment [7] worked out at 3.95; in experiment [1] it was 2.91; in experiment [2] it was 0.98; in experiment [3], 0.276; in experiment [4], 0.161; in experiment [5] it was 0.108. In experiment [6], this molecule came in with an OD450值 of 2.03 OD450.

B3: 命名为1H2的兔重组单克隆抗体 (rabbit recombinant monoclonal antibody 1H2) (antibody, V domains shown)
VH: QSVEESRGGLIKPTDTLTLTCTVSGFSLSNYGVSWVRQAPGNGLEYIGFIGTIGATLYANWAKSRSTITRNTNLNTVTLKMTSLTAADTATYFCARGIYGDIYVYAFDIWGPGTLVTVSS
VL: AAVLTQTPSPVSAAVGGTVTISCQASQSVRDNGDLAWYQQKPGQPPKLLIYDVSALASGVPSRFKGRGSGTQFTLTISDLECDDAATYSCAGGYIAGSDRWVFGGGTEVVVK
For the molecule B3, the ELISA OD in experiment [8] stood at 3.95; in experiment [7], 3.83; in experiment [1] it was 2.39; in experiment [2], 1.18; in experiment [3], 0.32; in experiment [4], 0.153. In experiment [5], this molecule came in with an ELISA OD of 0.11. In experiment [6], the OD450值 turned out to be 1.52 OD450.

Source of the values: patent publication CN115433278A.
